Test results as given in patent publication US20220033501A1.

Experiments:
[1] = molecular target: human TIM-3 on CHOK1 stable cell line (CHOK1-hTIM-3) (human) (UniProt Q8TDQ0); assay: FACS, CHOK1-hTIM-3 cells, 1.6 nM antibody
[2] = molecular target: monkey TIM-3 on CHOK1 stable cell line (CHOK1-cTIM-3) (monkey); assay: FACS, CHOK1-cTIM-3 cells, 0.064 nM antibody
[3] = molecular target: murine TIM-3 extracellular domain protein with hFc tag (mTIM-3-hFc) (mouse) (UniProt Q8VIM0); assay: ELISA, coated mouse TIM-3 ECD protein, 0.6667 nM antibody
Chain of murine TIM-3 extracellular domain protein with hFc tag (mTIM-3-hFc) (mouse) (Q8VIM0 other isoform, or with tags, fused parts or gaps): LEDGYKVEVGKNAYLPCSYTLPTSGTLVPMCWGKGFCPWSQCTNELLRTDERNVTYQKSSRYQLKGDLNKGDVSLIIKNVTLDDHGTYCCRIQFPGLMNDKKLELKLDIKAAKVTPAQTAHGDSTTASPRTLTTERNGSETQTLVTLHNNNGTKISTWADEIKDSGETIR

[4] = molecular target: TIM-3 protein on human peripheral blood mononuclear lymphocytes (PBMC) (human) (UniProt Q8TDQ0); assay: cell-based or functional assay
Chain of TIM-3 protein on human peripheral blood mononuclear lymphocytes (PBMC) (human) (Q8TDQ0 22-301 limits assumed): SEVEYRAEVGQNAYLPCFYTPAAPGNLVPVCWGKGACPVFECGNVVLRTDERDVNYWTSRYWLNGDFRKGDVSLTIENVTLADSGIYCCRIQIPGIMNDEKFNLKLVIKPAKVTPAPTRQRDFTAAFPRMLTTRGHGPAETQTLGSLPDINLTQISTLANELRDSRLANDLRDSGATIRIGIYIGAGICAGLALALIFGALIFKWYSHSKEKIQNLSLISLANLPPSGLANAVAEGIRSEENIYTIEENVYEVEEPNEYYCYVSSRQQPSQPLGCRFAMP

[5] = molecular target: murine TIM-3 extracellular domain protein with hFc tag (mTIM-3-hFc) (mouse) (UniProt Q8VIM0); assay: ELISA, coated mouse TIM-3 ECD protein, 6.6667 nM antibody
[6] = molecular target: human TIM-3 on CHOK1 stable cell line (CHOK1-hTIM-3) (human) (UniProt Q8TDQ0); assay: FACS, CHOK1-hTIM-3 cells, 0.013 nM antibody
[7] = molecular target: human TIM-3 extracellular domain protein with hFc tag (hTIM-3-hFc) (human) (UniProt Q8TDQ0); assay: ELISA, coated human TIM-3 ECD protein, 0.0667 nM antibody
Chain of human TIM-3 extracellular domain protein with hFc tag (hTIM-3-hFc) (human) (Q8TDQ0 22-200): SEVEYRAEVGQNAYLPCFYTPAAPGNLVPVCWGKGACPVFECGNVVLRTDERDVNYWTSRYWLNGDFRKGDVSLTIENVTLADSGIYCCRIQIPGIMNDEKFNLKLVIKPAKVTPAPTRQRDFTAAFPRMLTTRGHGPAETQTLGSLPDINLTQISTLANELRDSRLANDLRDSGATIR

[8] = molecular target: murine TIM-3 extracellular domain protein with hFc tag (mTIM-3-hFc) (mouse) (UniProt Q8VIM0); assay: ELISA, coated mouse TIM-3 ECD protein, 0 nM antibody
[9] = molecular target: monkey TIM-3 on CHOK1 stable cell line (CHOK1-cTIM-3) (monkey); assay: FACS, CHOK1-cTIM-3 cells, 0.013 nM antibody
[10] = molecular target: human TIM-3 extracellular domain protein with hFc tag (hTIM-3-hFc) (human) (UniProt Q8TDQ0); assay: FACS, blocking of hTIM-3-hFc binding to phosphatidylserine on apoptotic Jurkat cells, 22.222 nM antibody
[11] = molecular target: human TIM-3 extracellular domain protein with hFc tag (hTIM-3-hFc) (human) (UniProt Q8TDQ0); assay: FACS, blocking of hTIM-3-hFc binding to phosphatidylserine on apoptotic Jurkat cells, 7.407 nM antibody
[12] = molecular target: murine TIM-3 extracellular domain protein with hFc tag (mTIM-3-hFc) (mouse) (UniProt Q8VIM0); assay: ELISA, coated mouse TIM-3 ECD protein, 0.0667 nM antibody
[13] = molecular target: monkey TIM-3 extracellular domain protein with hFc tag (cTIM-3-hFc) (monkey); assay: ELISA, coated monkey TIM-3 ECD protein, 0.6667 nM antibody
Chain of monkey TIM-3 extracellular domain protein with hFc tag (cTIM-3-hFc) (monkey) (chain, as listed by the source): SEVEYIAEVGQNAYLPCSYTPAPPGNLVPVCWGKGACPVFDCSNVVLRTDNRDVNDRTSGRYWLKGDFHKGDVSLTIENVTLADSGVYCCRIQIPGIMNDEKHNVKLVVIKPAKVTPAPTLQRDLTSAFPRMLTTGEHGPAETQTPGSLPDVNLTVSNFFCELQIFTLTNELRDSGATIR

[14] = molecular target: human TIM-3 extracellular domain protein with hFc tag (hTIM-3-hFc) (human) (UniProt Q8TDQ0); assay: ELISA, coated human TIM-3 ECD protein, 0.0067 nM antibody
[15] = molecular target: monkey TIM-3 extracellular domain protein with hFc tag (cTIM-3-hFc) (monkey); assay: ELISA, coated monkey TIM-3 ECD protein, 66.667 nM antibody
[16] = molecular target: human TIM-3 extracellular domain protein with hFc tag (hTIM-3-hFc) (human) (UniProt Q8TDQ0); assay: ELISA, coated human TIM-3 ECD protein, 0.0001 nM antibody
[17] = molecular target: human TIM-3 extracellular domain protein with hFc tag (hTIM-3-hFc) (human) (UniProt Q8TDQ0); assay: ELISA, coated human TIM-3 ECD protein, 6.6667 nM antibody
[18] = molecular target: human TIM-3 extracellular domain protein with hFc tag (hTIM-3-hFc) (human) (UniProt Q8TDQ0); assay: FACS, blocking of hTIM-3-hFc binding to phosphatidylserine on apoptotic Jurkat cells, 2.469 nM antibody
[19] = molecular target: human TIM-3 extracellular domain protein with hFc tag (hTIM-3-hFc) (human) (UniProt Q8TDQ0); assay: ELISA, coated human TIM-3 ECD protein, 66.667 nM antibody
[20] = molecular target: human TIM-3 extracellular domain protein with hFc tag (hTIM-3-hFc) (human) (UniProt Q8TDQ0); assay: FACS, blocking of hTIM-3-hFc binding to phosphatidylserine on apoptotic Jurkat cells, 200 nM antibody
[21] = molecular target: murine TIM-3 extracellular domain protein with hFc tag (mTIM-3-hFc) (mouse) (UniProt Q8VIM0); assay: ELISA, coated mouse TIM-3 ECD protein, 0.0007 nM antibody
[22] = molecular target: human TIM-3 extracellular domain protein with hFc tag (hTIM-3-hFc) (human) (UniProt Q8TDQ0); assay: FACS, blocking of hTIM-3-hFc binding to phosphatidylserine on apoptotic Jurkat cells, 66.667 nM antibody
[23] = molecular target: monkey TIM-3 on CHOK1 stable cell line (CHOK1-cTIM-3) (monkey); assay: FACS, CHOK1-cTIM-3 cells, 8 nM antibody
[24] = molecular target: murine TIM-3 extracellular domain protein with hFc tag (mTIM-3-hFc) (mouse) (UniProt Q8VIM0); assay: ELISA, coated mouse TIM-3 ECD protein, 0.0001 nM antibody
[25] = molecular target: human TIM-3 on CHOK1 stable cell line (CHOK1-hTIM-3) (human) (UniProt Q8TDQ0); assay: FACS, CHOK1-hTIM-3 cells, 8 nM antibody
[26] = molecular target: monkey TIM-3 extracellular domain protein with hFc tag (cTIM-3-hFc) (monkey); assay: ELISA, coated monkey TIM-3 ECD protein, 0.0007 nM antibody
[27] = molecular target: human TIM-3 on CHOK1 stable cell line (CHOK1-hTIM-3) (human) (UniProt Q8TDQ0); assay: FACS, CHOK1-hTIM-3 cells, 0.064 nM antibody
[28] = molecular target: human TIM-3 on CHOK1 stable cell line (CHOK1-hTIM-3) (human) (UniProt Q8TDQ0); assay: FACS, CHOK1-hTIM-3 cells, 0 nM antibody
[29] = molecular target: human TIM-3 extracellular domain protein with hFc tag (hTIM-3-hFc) (human) (UniProt Q8TDQ0); assay: ELISA, coated human TIM-3 ECD protein, 0.6667 nM antibody

Chain of monkey TIM-3 on CHOK1 stable cell line (CHOK1-cTIM-3) (monkey) (chain, as listed by the source limits assumed): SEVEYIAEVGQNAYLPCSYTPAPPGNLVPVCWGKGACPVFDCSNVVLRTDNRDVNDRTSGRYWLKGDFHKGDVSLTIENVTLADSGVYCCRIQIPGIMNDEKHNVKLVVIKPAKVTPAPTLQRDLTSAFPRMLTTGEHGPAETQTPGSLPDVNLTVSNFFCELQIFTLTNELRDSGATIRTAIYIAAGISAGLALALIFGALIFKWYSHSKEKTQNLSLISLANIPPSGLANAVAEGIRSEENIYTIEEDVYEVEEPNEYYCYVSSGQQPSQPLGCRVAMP
Chain of human TIM-3 on CHOK1 stable cell line (CHOK1-hTIM-3) (human) (Q8TDQ0 22-301 limits assumed): as the sequence (Q8TDQ0 22-301 limits assumed) above

human IgG control (antibody)
Mean fluorescence intensity [1]: 3.1
Mean fluorescence intensity [2]: 2.9
OD450 [3]: 0.22
IFN-γ production (donor X); antibody 0.1 µg/ml, N = 1 [4]: 2040 pg/mL
IFN-γ production (donor X); antibody 0.1 µg/ml, N = 2 [4]: 2060 pg/mL
IFN-γ production (donor X); antibody 1 µg/ml, N = 1 [4]: 2090 pg/mL
IFN-γ production (donor X); antibody 1 µg/ml, N = 2 [4]: 2070 pg/mL
IFN-γ production (donor X); antibody 10 µg/ml, N = 1 [4]: 2030 pg/mL
IFN-γ production (donor X); antibody 10 µg/ml, N = 2 [4]: 2020 pg/mL
IFN-γ production (donor X); antibody '0' (4th head as printed), N = 1 [4]: 2260 pg/mL
IFN-γ production (donor X); antibody '0' (4th head as printed), N = 2 [4]: 1900 pg/mL
IFN-γ production (donor X); antibody '0' (5th head as printed), N = 1 [4]: 2000 pg/mL
IFN-γ production (donor X); antibody '0' (5th head as printed), N = 2 [4]: 2320 pg/mL
OD450 [5]: 0.3
Mean fluorescence intensity [6]: 2.8
OD450 [7]: 0.07
OD450 [8]: 0.23
Mean fluorescence intensity [9]: 2.8
Inhibition ratio (%) [10]: -2.8%
Inhibition ratio (%) [11]: 0.5%
OD450 [12]: 0.21
OD450 [13]: 0.15
OD450 [14]: 0.07
OD450 [15]: 0.43
OD450 [16]: 0.07
OD450 [17]: 0.08
Inhibition ratio (%) [18]: -3.9%
OD450 [19]: 0.14
Inhibition ratio (%) [20]: -7.8%
OD450 [21]: 0.21
Inhibition ratio (%) [22]: 9.6%
Mean fluorescence intensity [23]: 3.7
OD450 [24]: 0.22
Mean fluorescence intensity [25]: 4.5
OD450 [26]: 0.14
Mean fluorescence intensity [27]: 2.8
Mean fluorescence intensity [28]: 2.8
OD450 [29]: 0.07
